B3: Mouse BSSL, recombinant (enzyme)
chain: AKLGAVYTEGGFVEGVNKKLSLLGGDSVDIFKGIPFATAKTLENPQRHPGWQGTLKATNFKKRCLQATITQDNTYGQEDCLYLNIWVPQGRKQVSHNLPVMVWIYGGAFLMGSGQGANFLKNYLYDGEEIATRGNVIVVTFNYRVGPLGFLSTGDANLPGNFGLRDQHMAIAWVKRNIAAFGGDPDNITIFGESAGAASVSLQTLSPYNKGLIRRAISQSGMALSPWAIQKNPLFWAKTIAKKVGCPTEDTGKMAACLKITDPRALTLAYKLPVKKQEYPVVHYLAFIPVIDGDFIPDDPINLYNNTADIDYIAGINNMDGHLFATIDVPAVDKTKQTVTEEDFYRLVSGHTVAKGLKGAQATFDIYTESWAQDPSQENMKKTVVAFETDVLFLIPTEIALAQHKAHAKSAKTYSYLFSHPSRMPIYPKWMGADHADDLQYVFGKPFATPLGYRPQDRAVSKAMIAYWTNFARSGDPNMGNSPVPTHWYPYTLENGNYLDITKTITSASMKEHLREKFLKFWAVTFEVLPTVTGDQDTLTPPEDDSEVAPDPPSDDSQVVPVPPTDDSVEAQMPATIGF
notes: Bought (R&D Systems, Cat. no 5658-CE); also called mBSSL; murine BSSL

Key:
Mouse BSSL, recombinant [1] = molecular target: B3; assay: SPR steady state, captured by anti-Fab, Absolute Antibody batch
Method: (§1) Kinetic parameters of the hIgG4 S228P clones were determined by SPR using BIACORE® T200 (GE Healthcare). An anti-Fab antibody (GE #28958325) was immobilized on a CM5 S sensor chip by primary amine coupling using NHS-EDC chemistry. The hIgG4 antibodies were captured by the anti-Fab antibody, and subsequently, five different concentrations of hBSSL (1:5 dilutions, 0.08-50 nM) or mBSSL (1:2 dilutions, 50-800 nM) were injected over the surface. The sensor chip surface was regenerated with 10 mM glycine-HCl pH 2.1. For binding to human BSSL, single cycle kinetic data was fitted to a 1:1 binding model and kinetic parameters were retrieved using software BlAevaluation. For mouse BSSL, a steady state analysis was performed by plotting the response level at equilibrium against each concentration, and KD values were retrieved by the BlAevalution software.

Mouse BSSL, recombinant [2] = molecular target: B3; assay: SPR steady state, hIgG4 S228P captured by anti-Fab
How it was run: (§2)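 hIgG4 S228P captured on an immobilized anti-Fab surface; five BSSL concentrations injected, 1:5 dilutions from 50 nM (human) or from 500 nM (mouse). Human BSSL: single-cycle kinetics, 1:1 fit. Mouse BSSL: KD from steady-state equilibrium response versus concentration. Regeneration with 10 mM glycine-HCl pH 2.1.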

[3] = molecular target: T1, Human BSSL (bile salt-stimulated lipase), native (human, UniProt P19835 21-753); assay: SPR single cycle kinetics, captured by anti-Fab, Absolute Antibody batch
T1 construct: Native full-length protein purified from human milk (Astra Hässle AB); also called hBSSL; non-biotinylated human BSSL
T1 sequence: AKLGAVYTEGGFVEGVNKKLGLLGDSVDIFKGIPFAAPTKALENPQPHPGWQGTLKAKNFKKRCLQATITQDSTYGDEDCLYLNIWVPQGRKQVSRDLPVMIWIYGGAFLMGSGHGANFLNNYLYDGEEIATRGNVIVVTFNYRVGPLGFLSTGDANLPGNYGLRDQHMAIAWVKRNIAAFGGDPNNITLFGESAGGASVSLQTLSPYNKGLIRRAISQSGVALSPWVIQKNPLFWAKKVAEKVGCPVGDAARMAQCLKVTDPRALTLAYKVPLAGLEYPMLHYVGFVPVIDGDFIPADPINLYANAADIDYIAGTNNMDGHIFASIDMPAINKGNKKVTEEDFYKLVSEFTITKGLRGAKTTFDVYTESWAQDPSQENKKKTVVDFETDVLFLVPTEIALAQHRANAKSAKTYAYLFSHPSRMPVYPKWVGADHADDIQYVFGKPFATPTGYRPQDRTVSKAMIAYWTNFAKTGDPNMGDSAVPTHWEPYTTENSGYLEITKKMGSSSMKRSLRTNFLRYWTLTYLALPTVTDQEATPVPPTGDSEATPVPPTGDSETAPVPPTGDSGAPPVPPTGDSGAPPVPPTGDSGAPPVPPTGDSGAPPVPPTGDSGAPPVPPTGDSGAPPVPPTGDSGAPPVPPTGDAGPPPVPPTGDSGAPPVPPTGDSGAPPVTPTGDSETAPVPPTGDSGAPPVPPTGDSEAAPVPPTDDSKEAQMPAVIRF
Method: as §1

Biotinylated human BSSL [4] = molecular target: T2, Biotinylated human BSSL (human, UniProt P19835 21-753, Biotinylated on glycosacarides, 30-40 biotin/BSSL); assay: flow cytometry displacement assay; 1.0 ug antibody, 1 ug b-hBSSL
T2 construct: hBSSL biotinylated in house; also called b-hBSSL; human BSSL-biotin
T2 sequence: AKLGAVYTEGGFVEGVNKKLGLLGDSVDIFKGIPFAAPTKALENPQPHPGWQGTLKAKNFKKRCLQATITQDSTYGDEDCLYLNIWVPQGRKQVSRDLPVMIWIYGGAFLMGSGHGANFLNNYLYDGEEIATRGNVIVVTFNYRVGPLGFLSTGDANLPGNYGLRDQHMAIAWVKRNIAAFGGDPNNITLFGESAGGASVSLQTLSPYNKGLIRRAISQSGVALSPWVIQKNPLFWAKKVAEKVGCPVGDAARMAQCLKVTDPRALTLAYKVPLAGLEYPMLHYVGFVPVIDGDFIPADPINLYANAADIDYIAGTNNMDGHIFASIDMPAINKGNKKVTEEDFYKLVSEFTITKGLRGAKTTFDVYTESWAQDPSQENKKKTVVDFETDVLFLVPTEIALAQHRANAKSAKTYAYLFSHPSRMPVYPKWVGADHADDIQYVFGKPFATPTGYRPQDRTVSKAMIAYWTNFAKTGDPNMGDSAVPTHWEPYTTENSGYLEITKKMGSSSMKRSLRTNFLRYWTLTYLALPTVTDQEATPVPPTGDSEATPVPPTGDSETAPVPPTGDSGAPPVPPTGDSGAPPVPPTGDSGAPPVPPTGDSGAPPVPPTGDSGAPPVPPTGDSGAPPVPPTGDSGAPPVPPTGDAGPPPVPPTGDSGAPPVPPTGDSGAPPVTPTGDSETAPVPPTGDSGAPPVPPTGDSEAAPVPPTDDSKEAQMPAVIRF
Method: (§3) The 28 BSSL-specific hIgG4 antibodies and the five reference antibodies at different concentrations (ranging from 0.5 μg to 3.0 μg per reaction; see Table 10) were added to b-hBSSL (1 μg per reaction, see Table 2) in round-bottom polystyrene tubes, lx PBS (pH 7.4) was added to a final volume of 20 μl and the antibody/b-hBSSL mixtures were incubated for 30 min. at +4° C. to facilitate binding of antibodies to BSSL. Buffy coat (50 μl) was then added to each antibody/b-hBSSL mixture and incubation continued for another 30 min at +4° C. Thereafter, 2 ml of FACS lysing solution (BD Biosciences) was added and the cells were incubated for 10 min at room temperature in order to lyse erythrocytes and fix the white blood cells. The cells were then centrifuged for 5 min. at 200×g, the resulting pellets were washed by adding 2 ml of FACS buffer (1×PBS supplemented with 1% FCS and 0.1% NaN3) and centrifuged again. Finally, the supernatants were discarded and the cells were resuspended in the last drop of liquid, approximately 50 μl.
(§4) 5 μl of BV421-labelled anti-human CD14 (BD Biosciences) and 5 μl of BB515-labelled streptavidin (BD Biosciences) was added to each tube and incubated for 30 min, at +4° C., protected from light. Thereafter, cells were washed twice with FACS buffer, resuspended in 500 μl FACS buffer, and run on BD LSRII flow cytometer (BD Biosciences). Finally, data were analyzed using FlowJo software (BD Biosciences).

[5] = molecular target: T1, Human BSSL (bile salt-stimulated …); assay: SPR single cycle kinetics, hIgG4 S228P captured by anti-Fab
How it was run: as §2

Biotinylated human BSSL [6] = molecular target: T2, Biotinylated human BSSL; assay: flow cytometry displacement assay; 0.5 ug antibody, 1 ug b-hBSSL
Method: as §3, §4

Biotinylated human BSSL [7] = molecular target: T2, Biotinylated human BSSL; assay: flow cytometry displacement assay; 2.0 ug antibody, 1 ug b-hBSSL
Method: as §3, §4

Biotinylated human BSSL [8] = molecular target: T2, Biotinylated human BSSL; assay: flow cytometry displacement assay; 3.0 ug antibody, 1 ug b-hBSSL
How it was run: (§5)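 Antibody (0.5–3.0 μg per reaction) preincubated with 1 μg biotinylated human BSSL in PBS pH 7.4, 30 min at 4 °C, then with human buffy coat 30 min at 4 °C. After erythrocyte lysis/fixation, bound BSSL on CD14+ monocytes detected by labelled streptavidin via flow cytometry.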

Biotinylated human BSSL [9] = molecular target: T2, Biotinylated human BSSL; assay: flow cytometry displacement assay; 1.5 ug antibody, 1 ug b-hBSSL
How it was run: as §5

[10] = molecular target: T1, Human BSSL (bile salt-stimulated …); assay: cell-based or functional assay
[11] = molecular target: T1, Human BSSL (bile salt-stimulated …); assay: cell-based or functional assay; remark: listed apart in the source
AS20 scFv = assay: HTRF competition against 5 nM b-hBSSL for 2.5 nM AS20 scFv
Sequence of AS20 scFv (VH, as listed by the source): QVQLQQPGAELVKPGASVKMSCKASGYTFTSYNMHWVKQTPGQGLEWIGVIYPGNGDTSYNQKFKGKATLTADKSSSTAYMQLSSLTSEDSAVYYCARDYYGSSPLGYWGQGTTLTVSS
Method: In order to study the interaction between AS20 scFv and native mouse BSSL, a competition assay was developed. Detection of binding was enabled through donor molecule terbium-conjugated α-FLAG antibody (Cisbio #611FG2TL), which interacts with the C-terminal located FLAG-tag of the scFv, and acceptor molecule streptavidin-conjugated XL665 (Cisbio #610SAXL), which interacts with the biotin-moieties on human BSSL.
2.5 nM of AS20 scFv was pre-incubated for 2 hours with the mouse or human orthologue of BSSL, after which 5 nM b-hBSSL and the FRET donor and acceptor molecules were added. The mixture was finally incubated at room temperature for 16 hours and the binding signal (665 nm) and background/noise signal (615 nm) was measured using EnVision (PerkinElmer). The experimental output, Delta R, was calculated for each point using four replicates and two blanks.

B1: AS20 hIgG4 S228P (antibody)
heavy: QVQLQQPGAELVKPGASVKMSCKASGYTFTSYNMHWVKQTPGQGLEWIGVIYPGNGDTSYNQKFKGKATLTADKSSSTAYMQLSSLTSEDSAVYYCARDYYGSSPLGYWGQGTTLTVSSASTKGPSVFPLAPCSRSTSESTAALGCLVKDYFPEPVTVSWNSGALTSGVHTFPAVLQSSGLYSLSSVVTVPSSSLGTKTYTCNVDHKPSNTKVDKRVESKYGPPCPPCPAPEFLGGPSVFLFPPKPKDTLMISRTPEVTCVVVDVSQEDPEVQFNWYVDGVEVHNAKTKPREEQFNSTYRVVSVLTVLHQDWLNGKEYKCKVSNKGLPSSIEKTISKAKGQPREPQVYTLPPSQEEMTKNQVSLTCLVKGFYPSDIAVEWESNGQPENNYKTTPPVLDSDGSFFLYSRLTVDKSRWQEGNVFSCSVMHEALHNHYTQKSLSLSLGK
light: QIVLTQSPAVMSASPGEKVTMTCSASSSISYMHWYQQKPGTSPKRWIYDTSKLASGVPARFSGSGSGTSYSLTISSMEAEDAATYYCHQRSSYPTFGGGTKLEIKRTVAAPSVFIFPPSDEQLKSGTASVVCLLNNFYPREAKVQWKVDNALQSGNSQESVTEQDSKDSTYSLSSTLTLSKADYEKHKVYACEVTHQGLSSPVTKSFNRGEC
notes: also called AS20 IgG4; AS20 (parental clone)
Mouse BSSL, recombinant [1]
  Kd: 223 nM
Mouse BSSL, recombinant [2]
  Kd: 161 nM
[3]
  Kd: 0.6 nM
Biotinylated human BSSL [4]
  percentage reduction of b-hBSSL binding to CD14+ monocytes: 21%
[5]
  Kd: 0.6 nM
Biotinylated human BSSL [6]
  percentage reduction of b-hBSSL binding to CD14+ monocytes: 19%
Biotinylated human BSSL [7]
  percentage reduction of b-hBSSL binding to CD14+ monocytes: 58%

B2: S-SL048-11 hIgG4 S228P (antibody, V domains shown)
VH: QVQLVQSGAEVKKPGASVKVSCKASGYTFTSYNMHWVRQAPGQGLEWMGVIYPGDGATSYAQKFKGRVTMTRDTSTSTVYMELSSLRSEDTAVYYCARDYYGSSPLGYWGQGTLVTVSS
VL: DIQMTQSPSSLSASVGDRVTITCSASPSISYMNWYQQKPGKAPKLLIYATSSLASGVPSRFSGSGSGTDFTLTISSLQPEDFATYYCHQRSSYPTFGQGTKLEIKR
notes: also called clone 11; mAb11
Mouse BSSL, recombinant [1]
  Kd: 65 nM
Mouse BSSL, recombinant [2]
  Kd: 24 nM
[3]
  Kd: 0.6 nM
Biotinylated human BSSL [8]
  percentage reduction of b-hBSSL binding to CD14+ monocytes: 68%
Biotinylated human BSSL [9]
  percentage reduction of b-hBSSL binding to CD14+ monocytes: 60%
Biotinylated human BSSL [4]
  percentage reduction of b-hBSSL binding to CD14+ monocytes: 9%
[5]
  Kd: 0.7 nM
Biotinylated human BSSL [6]
  percentage reduction of b-hBSSL binding to CD14+ monocytes: 1%
[10]
  BSSL hydrolysis of cholesterol esters, relative value (no antibody = 100%); 0.19 ug antibody: 96.2%
  BSSL hydrolysis of cholesterol esters, relative value (no antibody = 100%); 0.38 ug antibody: 98.2%
  BSSL hydrolysis of cholesterol esters, relative value (no antibody = 100%); 0.75 ug antibody: 92.2%
  BSSL hydrolysis of cholesterol esters, relative value (no antibody = 100%); 1.5 ug antibody: 95.2%
  BSSL hydrolysis of cholesterol esters, relative value (no antibody = 100%); 3.0 ug antibody: 93.7%
  BSSL hydrolysis of cholesterol esters, relative value (no antibody = 100%); 6.0 ug antibody: 90.2%
[11]
  BSSL hydrolysis of triglycerides, relative value (no antibody = 100%); 0.19 ug antibody: 109%
  BSSL hydrolysis of triglycerides, relative value (no antibody = 100%); 0.38 ug antibody: 114%
  BSSL hydrolysis of triglycerides, relative value (no antibody = 100%); 0.75 ug antibody: 125%
  BSSL hydrolysis of triglycerides, relative value (no antibody = 100%); 1.5 ug antibody: 112%
  BSSL hydrolysis of triglycerides, relative value (no antibody = 100%); 3.0 ug antibody: 120%
  BSSL hydrolysis of triglycerides, relative value (no antibody = 100%); 6.0 ug antibody: 113%

## B3
AS20 scFv
  IC50: 150 to 200 nM
